This note sets out measurements from the RNAGym collection of RNA variant scans (doi:10.7554/elife.90254).

Sequences and labels used below:
B1: OR4K15 (parent)
chain: GUUAACGGUCAUAGGCCAUGGAAACUAGGAGCACCAUUUCGCUGCCAGUGAAGAAAUGAACAAAGAAAAUCUGGGCCAGGCAGGCAUCAAAAGAAAUAGUCUUGCGCUCAACCAGAAAGUCUGUAAUCAUUUUAAGGGUA

In this data set the parent is B1. Kind of data set: self-cleavage, relative activity (ratio to wild type); higher = more cleavage; in vitro, sequencing; the parent is a self-cleaving ribozyme.
With A36G G123A, the self-cleavage worked out at 1.46. For the variant A33G G115U, the self-cleavage amounted to 0.06. The value for C35U U70C was 0.58; that for C35U U70A was 0.97. The value for A36G A110C was 0.39; that for A36G A110G was 0.07; that for A36G G99A was 0.74. In the case of A33C A69G it was 1.71; in that of C34U G44A, 1.66.

Take A33U G48A: the self-cleavage worked out at 1.42. The value for C34U A94G was 1.55. The value for A33G A91G was 0.29. With G31C U87C, the self-cleavage worked out at 2.1.

On to C35A C61U, for which the self-cleavage turned out to be 1.59. The value for A33G A117G was 0.7.

A33G A117U: the self-cleavage stood at 0.74. For A33C A126G, the self-cleavage stood at 1.8. With A33G U133C, the self-cleavage is 0.88. The value for A33G A69G was 0.28; that for C34U A68G was 1.8; that for A33U A68G was 1.28. With A33U G99A, the self-cleavage came to 1.09.

C34A A60G: the self-cleavage came out at 1.39. Regarding C32U A95G, the self-cleavage amounted to 2.11. The value for A36C G41U was 1.47.

With A33U U87C, the self-cleavage turned out to be 1.74. Regarding A33U U87A, the self-cleavage is 2.04.

Consider C35U A94G, for which the self-cleavage came out at 0.64. The value for A36G A134U was 1.6. The value for A33G G58A was 0.55; that for C35A A129G was 1.27.

For the variant A36G U49A, the self-cleavage is 1.26. In the case of A33G A89U it was 1.27. For the variant A33G A89G, the self-cleavage was 0.84. The value for C32U C40U was 2.05; that for A33U A116G was 1.55. In the case of A36G U43G it was 1.28. G31A A59U: the self-cleavage is 0.76. With G31A A59G, the self-cleavage is 1.04. The value for A33G A64C was 1.17.

Regarding A33G A64U, the self-cleavage came to 0.99. In the case of G31U A60G it was 1.37; in that of A33C U132C, 1.46.

Consider G31A A86U, for which the self-cleavage was 0.91. As for G31A A86G, the self-cleavage worked out at 1.75. In the case of C32A A56G it was 0.28. In the case of C34U G123A it was 1.87; in that of A33G U130A, 1.1. The value for A33G U130C was 0.66; that for A36G G136U was 1.95; that for A33U A114U was 0.08.

With A33U A114G, the self-cleavage amounted to 0.64. The value for G31U A118G was 1.06; that for A36G A62G was 1.94; that for C34U A52G was 0.85.

On to C35A A36U, for which the self-cleavage amounted to 0.97. The value for A33G A96G was 0.96; that for A33G A54U was 1.04; that for C35U A96G was 0.88. In the case of A33G A86U it was 0.87; in that of A33U U103C, 0.84. For the variant G31U A129G, the self-cleavage amounted to 1.78.

As for C34U A125G, the self-cleavage is 0.63. In the case of C35A U43A it was 2.06; in that of A33G G138A, 0.65. The value for G31U A36G was 2.23.

Regarding A33U A134G, the self-cleavage is 1.2.

As to C32U C121U, the self-cleavage was found to be 2.22. In the case of C32G A96U it was 1.87; in that of G31A A78U, 0.43; in that of G31A A78G, 0.27. The value for A33U A140G was 2.18; that for C34G was 1.98; that for C34A was 1.12. In the case of C34U it was 1.35; in that of A36G G83U, 0.41; in that of G31A A69U, 2.21. As for C35U U43A, the self-cleavage worked out at 0.61. The value for A33G U72C was 0.12; that for A33G U72G was 0.14.

For the variant A33G U72A, the self-cleavage is 0.12. With A33G A126G, the self-cleavage was determined as 0.7. In the case of A36G G65U it was 1.06; in that of A33G U87C, 0.7. In the case of A33G U87A it was 0.66; in that of A33U U139A, 0.95. With A33U C35U, the self-cleavage was determined as 1.93. In the case of G31U A92G it was 1.27. In the case of C34U A111G it was 0.04; in that of A33G A92U, 0.42; in that of C32U A94G, 1.5.

Consider A33C A47G, for which the self-cleavage came out at 1.05.

Regarding A36C U131C, the self-cleavage was found to be 1.1. For the variant A36G U38C, the self-cleavage was 1.19. In the case of A36G A60G it was 1.28.

On to C32U A51G, for which the self-cleavage worked out at 1.88. The value for C34A U57C was 1.31; that for G31A A60G was 0.77; that for C32U U124A was 0.41. The value for G31A A92G was 1.57; that for C34U U139A was 1.61; that for A36C A62G was 2. In the case of C32A A110U it was 2.04. For the variant C35U A51G, the self-cleavage amounted to 1.06. In the case of C32A C128A it was 0.81; in that of A36G A111C, 0.

As to A36G A111G, the self-cleavage amounted to 0.03.

Regarding A36C A64G, the self-cleavage was 2.21. The value for A36C U87C was 1.04; that for A36C U87A was 2.59. In the case of C35U U122A it was 1.26. The value for C35U U122C was 1.07. Turning to A33G U122A, the self-cleavage was 0.6. As for A30U U100C, the self-cleavage turned out to be 2.08.

In the case of C32U U70C, the self-cleavage worked out at 0.69. The value for A33U U72C was 0.3; that for C35U U103C was 0.29. In the case of A33C A66U it was 1.52.

On to A30U U102C, for which the self-cleavage stood at 1.81. In the case of A36G C71U, the self-cleavage was found to be 0.31. The value for C35A A116G was 0.83; that for C34U A67U was 1.92.

As to C34A A82G, the self-cleavage amounted to 0.76. With C35U C71U, the self-cleavage came out at 0.22. In the case of A33U U70C it was 1.

C32U A111G: the self-cleavage stood at 0.01.

As to A33U A78G, the self-cleavage worked out at 0.29. The value for C32U A55G was 0.65; that for A36G A90C was 1.15. In the case of A36G A90G it was 1.54; in that of G31U A47G, 1.05; in that of A33C U124G, 1.02. The value for A36G A140G was 1.31. Consider A36G G104A, for which the self-cleavage came to 0.07. In the case of A36G A66U it was 2.4. In the case of A33G U100C it was 2.23. In the case of C32U U57C it was 1.07; in that of C35U A86G, 0.68; in that of C32U U72C, 0.2. Consider C35U A69G, for which the self-cleavage came out at 1.1. The value for A36G A67G was 1.7; that for A36G A67U was 1.85. In the case of G31A C105U it was 0.25; in that of A33C U122A, 1.61; in that of A33C U122C, 1.09. The value for A33U U39A was 1.4; that for G31A A52U was 1.32; that for A33U C81U was 0.27. With A36G A82U, the self-cleavage was 0.1.

For the variant A36G A82G, the self-cleavage came to 0.53. In the case of A36G A78G, the self-cleavage turned out to be 0.07. The value for C35U U87C was 1; that for A33G A60G was 0.98; that for C32U A60G was 1.38. In the case of A33G C76U it was 0.12; in that of C35U A91G, 1.19. The value for C35U A118G was 0.99; that for A33U A54G was 0.76; that for A33U U49G was 2.25. As to A33G G106A, the self-cleavage was found to be 0.04. In the case of A33G A78G it was 0.19; in that of A33G A111G, 0.02. Regarding A36G A54G, the self-cleavage was found to be 0.96. The value for A33U A96G was 0.16; that for C32G A54U was 1.14.

For the variant C35U A111G, the self-cleavage is 0.05. The value for C35U A111U was 0.05.
